US20230147657A1 (INSERM INSTITUT NATIONAL DE LA SANT ET DE LA RECHERCHE M …, published 2023)

T1: human CD45RC (human, UniProt P08575 26-1306)
T1 construct: Native protein on human blood leukocytes / PBMC / T cells of healthy volunteers; also called hCD45RC
T1 sequence: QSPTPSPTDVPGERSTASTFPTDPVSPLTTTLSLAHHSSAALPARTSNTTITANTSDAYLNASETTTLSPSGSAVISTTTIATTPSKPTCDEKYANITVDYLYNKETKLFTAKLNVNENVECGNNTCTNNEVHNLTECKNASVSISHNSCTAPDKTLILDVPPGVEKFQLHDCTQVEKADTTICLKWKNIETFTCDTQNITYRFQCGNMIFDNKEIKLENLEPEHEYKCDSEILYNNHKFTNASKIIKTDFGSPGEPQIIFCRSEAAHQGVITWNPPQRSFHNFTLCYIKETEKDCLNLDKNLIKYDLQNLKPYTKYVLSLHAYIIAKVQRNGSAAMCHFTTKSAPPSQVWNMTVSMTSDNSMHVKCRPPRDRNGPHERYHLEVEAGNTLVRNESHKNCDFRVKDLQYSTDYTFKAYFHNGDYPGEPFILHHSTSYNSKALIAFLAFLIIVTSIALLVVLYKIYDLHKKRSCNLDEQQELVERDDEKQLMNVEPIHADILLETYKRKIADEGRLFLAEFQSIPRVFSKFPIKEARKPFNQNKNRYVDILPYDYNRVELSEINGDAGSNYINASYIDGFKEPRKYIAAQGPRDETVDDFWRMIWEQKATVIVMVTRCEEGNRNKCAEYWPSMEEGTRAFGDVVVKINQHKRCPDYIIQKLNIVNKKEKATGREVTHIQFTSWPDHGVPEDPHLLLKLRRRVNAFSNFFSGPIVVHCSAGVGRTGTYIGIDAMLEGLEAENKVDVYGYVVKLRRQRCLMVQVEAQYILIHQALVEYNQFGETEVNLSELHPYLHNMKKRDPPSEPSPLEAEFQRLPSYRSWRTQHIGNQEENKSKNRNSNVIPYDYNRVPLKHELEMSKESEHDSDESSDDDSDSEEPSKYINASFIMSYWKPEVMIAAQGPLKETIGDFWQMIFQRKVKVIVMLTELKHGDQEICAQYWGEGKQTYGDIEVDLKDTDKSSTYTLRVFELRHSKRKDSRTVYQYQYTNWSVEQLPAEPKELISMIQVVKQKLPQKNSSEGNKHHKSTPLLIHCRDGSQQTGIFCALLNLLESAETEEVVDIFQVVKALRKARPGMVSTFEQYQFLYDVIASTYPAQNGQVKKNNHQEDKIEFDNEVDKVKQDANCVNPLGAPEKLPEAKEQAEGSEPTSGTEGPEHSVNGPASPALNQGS

T2: human CD45RC in solubilized cell membranes (CD45RC^high PBMCs or CHO cells expressing CD45RC) (human, UniProt P08575 26-1306)
T2 sequence: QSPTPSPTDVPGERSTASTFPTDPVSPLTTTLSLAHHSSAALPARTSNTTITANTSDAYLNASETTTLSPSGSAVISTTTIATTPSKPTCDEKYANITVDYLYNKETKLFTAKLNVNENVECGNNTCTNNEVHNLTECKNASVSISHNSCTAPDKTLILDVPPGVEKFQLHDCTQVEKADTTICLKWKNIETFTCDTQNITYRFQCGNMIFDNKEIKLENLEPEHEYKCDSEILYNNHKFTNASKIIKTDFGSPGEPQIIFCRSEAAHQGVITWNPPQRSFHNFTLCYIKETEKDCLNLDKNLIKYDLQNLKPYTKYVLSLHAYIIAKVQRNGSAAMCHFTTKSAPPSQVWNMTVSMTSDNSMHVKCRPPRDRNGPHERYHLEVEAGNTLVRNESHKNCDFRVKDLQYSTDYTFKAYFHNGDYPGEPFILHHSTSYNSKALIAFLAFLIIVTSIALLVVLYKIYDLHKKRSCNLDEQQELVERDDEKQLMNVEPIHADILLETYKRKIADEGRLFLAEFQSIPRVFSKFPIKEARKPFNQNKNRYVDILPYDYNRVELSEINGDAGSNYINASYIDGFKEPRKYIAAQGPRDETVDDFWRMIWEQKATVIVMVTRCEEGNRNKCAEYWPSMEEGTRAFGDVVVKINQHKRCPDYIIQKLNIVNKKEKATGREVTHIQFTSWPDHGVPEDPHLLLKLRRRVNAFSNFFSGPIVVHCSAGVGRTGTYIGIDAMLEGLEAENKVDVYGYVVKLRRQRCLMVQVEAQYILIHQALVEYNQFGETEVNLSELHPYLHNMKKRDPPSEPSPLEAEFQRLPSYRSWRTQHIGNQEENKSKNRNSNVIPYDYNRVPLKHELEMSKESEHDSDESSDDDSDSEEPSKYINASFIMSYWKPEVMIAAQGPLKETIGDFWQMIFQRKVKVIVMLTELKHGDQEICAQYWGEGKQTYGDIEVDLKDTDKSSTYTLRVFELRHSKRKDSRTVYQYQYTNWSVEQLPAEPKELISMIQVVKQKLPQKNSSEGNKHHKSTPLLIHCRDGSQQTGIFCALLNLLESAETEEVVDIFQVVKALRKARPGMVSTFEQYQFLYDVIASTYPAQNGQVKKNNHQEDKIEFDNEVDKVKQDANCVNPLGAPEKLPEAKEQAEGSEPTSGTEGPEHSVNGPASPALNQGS


How the values were obtained:
[1] = biological target: T1, human CD45RC; assay: cell-based or functional assay
[2] = biological target: T2, human CD45RC in solubilized cell …; assay: SPR (BIAcore 3000 / T200), ABIS-45RC immobilized on CM5 chip, solubilized cell membranes as analyte, 25 °C, single cycle kinetics and calibration free concentration analysis
Excerpt: Briefly, 1×10⁷ CD45RC^high PBMCs or CHO cells expressing CD45RC after plasmid transfection were solubilized using the Mem-PER membrane isolation kit (Thermo-fisher).

[3] = biological target: T1, human CD45RC; assay: flow cytometry on T cells of human PBMC; biotin anti-human IgG + streptavidin PerCP-Cy5.5

| Molecule | apoptosis of human T cells after 18 h with transduced Jurkat cells (annexin V / DAPI) [1] [%] | Kd [2] [nM] | koff [2] [s⁻¹] | kon [2] [M⁻¹ s⁻¹] | % of T cells in the CD45RC gate at 1 µg/mL [3] [%] | % of T cells in the CD45RC gate at 2 µg/mL [3] [%] |
| --- | --- | --- | --- | --- | --- | --- |
| Ctrl-CAR (control CAR having a different antigenic specificity) (receptor) | 7 to 8 |  |  |  |  |  |
| ABIS-45RC (antibody, mouse IgG1, kappa, V domains shown, also called murine ABIS-45RC; ABIS-CD45RC) VH: QVQLQQSGAELVRPGTSVKMSCKAAGYTFTNYYIGWVKQRPGHGLEWIGDIFPGGDYANSNEKFKGKATLTADTSSSTAYMQLSSLTSEDSAIYYCVRRNFDYWGQGTTLTVSS VL: QIVLTQSPTIMSASPGEKVTITCSASSSVSYMHWFQQKTGTSPRLWIYNTSNLPSGVPARFSGSGSGTSYSLTISRMEAEDAATYYCQQRSSYPLTFGAGTKLELKR |  | 50 | 0.0144 | 291000 | 61.3 | 61.1 |
